Results as given in US20200299384A1 (published 2020).
Residue numbers refer to the chain shown, from its start. Read-outs that look alike come from different tables or passages of the source. Values belong to the binder of their own block, whether it stands above or below them.

Legend:
[1] = target: T1, Human CD3 Gamma (CD3gamma) protein (human, UniProt P09693 23-116); experiment: ELISA, antigen coated on plate
T1 construct: extracellular domain; Bought protein

[2] = target: T2, Human CD3 delta (CD3 delta) protein (His Tag) (human, UniProt P04234 22-105); experiment: ELISA, antigen coated on plate
T2 construct: extracellular domain; Bought protein; not shown: His tag
T2 sequence (P04234 22-105, stated change not applied): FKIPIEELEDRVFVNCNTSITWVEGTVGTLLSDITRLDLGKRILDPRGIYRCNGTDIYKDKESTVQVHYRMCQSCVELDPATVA

[3] = target: T3, mouse CD3epsilon protein (mouse, UniProt P22646 22-108, limits assumed); experiment: ELISA, antigen coated on plate
T3 sequence (P22646 22-108 limits assumed): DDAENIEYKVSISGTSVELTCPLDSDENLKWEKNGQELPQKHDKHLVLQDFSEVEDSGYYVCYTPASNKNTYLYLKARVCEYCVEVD

[4] = target: T4, Human CD3 epsilon (CD3epsilon) protein (His Tag) (human, UniProt P07766 23-126); experiment: ELISA, antigen coated on plate
T4 construct: extracellular domain; Bought protein; also called recombinant human CD3epsilon ECD; not shown: His tag
T4 sequence (P07766 23-126): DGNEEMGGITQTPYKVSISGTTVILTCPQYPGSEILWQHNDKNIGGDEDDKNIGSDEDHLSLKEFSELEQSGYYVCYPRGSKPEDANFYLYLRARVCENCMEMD

[5] = target: T5, Cynomolgus Monkey CD3 epsilon protein (Cynomolgus monkey, UniProt Q95LI5 22-117); experiment: ELISA, antigen coated on plate
T5 construct: Bought protein; also called Cyno-Monkey CD3epsilon
T5 sequence (looked up): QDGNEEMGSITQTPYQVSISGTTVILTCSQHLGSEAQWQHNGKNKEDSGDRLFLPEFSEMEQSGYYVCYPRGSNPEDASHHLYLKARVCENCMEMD

[6] = target: T3, mouse CD3epsilon protein; experiment: ELISA, antigen coated on plate; remark: listed apart in the source
[7] = target: T4, Human CD3 epsilon (CD3epsilon) protein …; experiment: ELISA, antigen coated on plate; remark: listed apart in the source
[8] = target: T5, Cynomolgus Monkey CD3 epsilon protein; experiment: ELISA, antigen coated on plate; remark: listed apart in the source
[9] = target: T5, Cynomolgus Monkey CD3 epsilon protein; experiment: ELISA, antigen coated on plate; remark: listed apart in the source
[10] = target: T6, human CD3 expressed on cells (Jurkat cells; human CD4 T cells) (human, UniProt P07766 23-207); experiment: flow cytometry on Jurkat cells
T6 construct: whole, on cells; also called human CD3 receptor on T cell surface; human CD3 expressing cells (Jurkat cells)
T6 sequence (P07766 23-207): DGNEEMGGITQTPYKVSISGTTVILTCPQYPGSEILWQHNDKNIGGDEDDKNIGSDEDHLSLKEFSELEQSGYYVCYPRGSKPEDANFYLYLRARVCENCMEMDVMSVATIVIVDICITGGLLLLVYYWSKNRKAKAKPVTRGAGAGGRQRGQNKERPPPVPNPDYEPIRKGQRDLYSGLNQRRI
Experimental: Various concentrations of testing mAbs were added to Jurkat cells, and then the binding activity of mAbs onto the surface of cells was detected by 2nd antibody-FITC. OKT3 was used as the positive control. The stained cells were analyzed by using a BD Biosciences FACSCanto II instrument and Flow Jo Version software. The binding EC₅₀ were calculated by using GraphPad Prism software equation: Nonlinear regression (curve fit)—log (agonist) vs. response-Variable slope.

[11] = target: T6, human CD3 expressed on cells (Jurkat …); experiment: flow cytometry on human CD4 T cells
[12] = target: T6, human CD3 expressed on cells (Jurkat …); experiment: flow cytometry on Jurkat cells, one site saturation fit; parameters: Best fit-Bmax: unit not given here
[13] = target: T4, Human CD3 epsilon (CD3epsilon) protein …; experiment: ELISA, antigen coated on plate, HRP-labelled 2nd antibody
Experimental: (§1) Human CD3epsilon, CD3delta and CD3gamma proteins were pre-coated in 96-well plates, respectively. The binding affinity of eight mAbs at various concentrations to these three different CD3 protein extracellular domain was detected by corresponding HRP labeled 2nd antibodies. The binding EC₅₀ (concentration of the test antibody when reaching half maximum binding) were analyzed by using GraphPad Prism software equation: Nonlinear regression (curve fit)—log (agonist) vs. response-Variable slope.

[14] = target: T1, Human CD3 Gamma (CD3gamma) protein; experiment: as above
Experimental: as §1

[15] = target: T2, Human CD3 delta (CD3 delta) protein …; experiment: as above
Experimental: as §1

[16] = target: T6, human CD3 expressed on cells (Jurkat …); experiment: flow cytometry on Jurkat cells, one site saturation fit

T1 sequence (P09693 23-116): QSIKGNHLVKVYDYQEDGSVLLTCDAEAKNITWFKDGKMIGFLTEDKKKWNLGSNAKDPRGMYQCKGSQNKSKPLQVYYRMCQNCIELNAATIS

binding result [1]: no binding
binding result [2]: no binding
binding result [3]: no binding
ELISA (A450) [4]: 2.76 A450
ELISA (A450) [5]: 2.81 A450
ELISA (A450) [6]: 0.446 A450
EC50 [7]: 0.049 nM
EC50 [8]: 0.033 nM
EC50 [9]: 0.125 nM
EC50 [10]: 6.91 nM
MFI (FACS) [10]: 2140 MFI
EC50 [11]: 3.51 nM
Best fit-Bmax [12]: 1.26e-10
Kd [12]: 1.67 nM
ELISA (A450) [13]: 1.64 A450
ELISA (A450) [14]: 0.05 A450
ELISA (A450) [15]: 0.05 A450
B1: WBP3311_2.166.48 (antibody, IgG2a, V domains shown)
VH: QVQLQQSGPELVKPGASVKIACKASGYSFTTYYIHWVKQRPGQGLEWIGWIFPGNDNIKYSEKFKGKATLTADTSSSTAYMQLSSLTSEDSAVYFCAIDSVSIYYFDYWGQGTTLTVSS
VL: DIVMSQSPSSLAVSAGEKVTMSCKSSQSLLNSRTRKNYLAWYQQKPGQSPKLLIYWASTRKSGVPDRFTGSGSGTDFTLTINSVQAEDLAVYYCTQSFILRTFGGGTKLEIK
notes: Mouse monoclonal antibody from hybridoma; also called W3311-2.166.48; W3311_2.166.48

binding result [1]: no binding
binding result [2]: no binding
ELISA (A450) [4]: 2.79 A450
ELISA (A450) [5]: 2.76 A450
EC50 [7]: 0.074 nM
EC50 [8]: 0.028 nM
EC50 [10]: 0.91 nM
MFI (FACS) [10]: 2130 MFI
Best fit-Bmax [12]: 1.12e-10
Kd [12]: 0.403 nM
ELISA (A450) [13]: 1.61 A450
ELISA (A450) [14]: 0.05 A450
ELISA (A450) [15]: 0.05 A450
B2: WBP3311_2.383.47 (antibody, V domains shown)
VH: QVQLQQSGPELVKPGASVRISCKTSGFTFTNYYIHWVIQRPGQGLEWIGWISPENGNTKYNENFQDKATLTADISSSTAYMHLSSLTSEDSAVYFCARDGYSLYYFDYWGQGTTLTVSS
VL: B1 VL with A12T, T59I, K61V, D76T, N82S, S83G, F98H, I99T
notes: Mouse monoclonal antibody from hybridoma

binding result [1]: no binding
binding result [2]: no binding
binding result [3]: no binding
ELISA (A450) [4]: 2.82 A450
ELISA (A450) [5]: 2.71 A450
ELISA (A450) [6]: 0.471 A450
EC50 [7]: 0.033 nM
EC50 [8]: 0.025 nM
EC50 [10]: 4.65 nM
MFI (FACS) [10]: 2220 MFI
Best fit-Bmax [12]: 1.2e-10
Kd [12]: 2.23 nM
ELISA (A450) [13]: 1.55 A450
ELISA (A450) [14]: 0.05 A450
ELISA (A450) [15]: 0.05 A450
B3: WBP3311_2.615.8 (antibody, V domains shown)
VH: QVQLQQSGPELVKPGTSMKISCKASGYSFTDFYTHWVRQRPGQGLEWIGWIFPGSDNIKYNEKFKGKATLTADTSSSTAYMQLSSLTSEDSAVYFCARDSVSVYYFDYWGQGTTLTVSS
VL: B1 VL with S14T, S32I, K61D, N82S
notes: Mouse monoclonal antibody from hybridoma; also called W3311-2.615.8

binding result [1]: no binding
binding result [2]: no binding
ELISA (A450) [4]: 2.95 A450
ELISA (A450) [5]: 2.87 A450
EC50 [7]: 0.069 nM
EC50 [8]: 0.028 nM
EC50 [10]: 3.71 nM
MFI (FACS) [10]: 2390 MFI
Best fit-Bmax [12]: 1.3e-10
Kd [12]: 2.29 nM
ELISA (A450) [13]: 1.33 A450
ELISA (A450) [14]: 0.06 A450
ELISA (A450) [15]: 0.05 A450
B4: WBP3311_2.482.5 (antibody, V domains shown)
VH: QVQLQQSGPELVKPGSSVKISCKPSGYTFTTYYIHWVKQRPGQGLEWIGWIFPGSDNIKYNENFKDKATLTADTSSSTAYMQLSSLTSEDSAVYFCARDSVSRYYFDYWGQGTILTVSS
VL: B1 VL with L30V, S32D, Q48L, K61E, N82S, T95A
notes: Mouse monoclonal antibody from hybridoma; also called W3311-2.482.5

binding result [1]: no binding
binding result [2]: no binding
ELISA (A450) [4]: 2.91 A450
ELISA (A450) [5]: 2.82 A450
EC50 [7]: 0.012 nM
EC50 [8]: 0.011 nM
EC50 [10]: 0.57 nM
MFI (FACS) [10]: 3360 MFI
EC50 [11]: 0.461 nM
Best fit-Bmax [12]: 1.17e-10
Kd [12]: 0.191 nM
ELISA (A450) [13]: 1.46 A450
ELISA (A450) [14]: 0.06 A450
ELISA (A450) [15]: 0.05 A450
B5: WBP3311_2.306.4 (antibody, IgG2b, V domains shown)
VH: QVQLQQSGPELVKPGASVRISCKASGFAFTDYYIHWVKQRPGQGLEWIGWISPGNVNTKYNENFKGRATLTADLSSSTAYMQLSSLTSEDSAVYFCARDGYSLYYFDYWGQGTTLTVSS
VL: B1 VL with A12T, K61Q, D76A, N82S, S83G, Y93F, F98H, I99T
notes: Mouse monoclonal antibody from hybridoma; also called W3311-2.306.4; W3311-2.306.4-mIgG2bK

binding result [1]: no binding
binding result [2]: no binding
ELISA (A450) [4]: 2.83 A450
ELISA (A450) [5]: 2.79 A450
EC50 [7]: 0.053 nM
EC50 [8]: 0.024 nM
EC50 [10]: 2.5 nM
MFI (FACS) [10]: 2740 MFI
Best fit-Bmax [12]: 1.13e-10
Kd [12]: 0.934 nM
ELISA (A450) [13]: 1.57 A450
ELISA (A450) [14]: 0.05 A450
ELISA (A450) [15]: 0.05 A450
B6: WBP3311_2.400.5 (antibody, V domains shown)
VH: QVQLQQSGPELVNPGASVKISCKASGYSFTNYYLHWVKQRPGQGLEWIGWIFPESDNTKYNEKLKGKATLTADTSSDTAYMHLSSLTFEDSAVYFCARDSVGNYFFDFWGQGTTLTVSS
VL: B1 VL with S22R, L30V, S32N, S49P, K61E, N82S, T95A
notes: Mouse monoclonal antibody from hybridoma; also called W3311-2.400.5

binding result [1]: no binding
binding result [2]: no binding
ELISA (A450) [4]: 2.91 A450
ELISA (A450) [5]: 2.83 A450
EC50 [7]: 0.026 nM
EC50 [8]: 0.019 nM
EC50 [10]: 2.97 nM
MFI (FACS) [10]: 2270 MFI
Best fit-Bmax [12]: 1.3e-10
Kd [12]: 1.32 nM
ELISA (A450) [13]: 1.7 A450
ELISA (A450) [14]: 0.06 A450
ELISA (A450) [15]: 0.05 A450
B7: WBP331_2.488.33 (antibody, V domains shown)
VH: QVQLQQSGPELVKPGTSVKISCKASGFSFTNYYIHWVKQRPGQGPEWIGWIFPGTVNTKYNEKFKGKATLTADTSSNTAFMQLSSLTSADSAVYFCARDSVGIYYFDFWGLGTTLTVSS
VL: B1 VL with M21V, S32N, K61E, N82S
notes: Mouse monoclonal antibody from hybridoma; also called WBP3311_2.488.33; W3311-2.488.33

binding result [1]: no binding
binding result [2]: no binding
ELISA (A450) [4]: 2.92 A450
ELISA (A450) [5]: 2.75 A450
EC50 [7]: 0.011 nM
EC50 [8]: 0.009 nM
EC50 [10]: 0.77 nM
MFI (FACS) [10]: 984 MFI
Best fit-Bmax [12]: 1.19e-10
Kd [12]: 0.252 nM
ELISA (A450) [13]: 1.54 A450
ELISA (A450) [14]: 0.07 A450
ELISA (A450) [15]: 0.06 A450
B8: WBP3311_2.844.8 (antibody, V domains shown)
VH: B5 VH
VL: B1 VL with A12T, K61E, D76A, N82S, S83G, Y93F, F98H, I99T
notes: Mouse monoclonal antibody from hybridoma; also called W3311-2.844.8; clone 2.844.8

EC50 [9]: 0.043 nM
EC50 [11]: 1.01 nM
Kd [16]: 0.201 nM
B9: WBP3311_2.166.48-z1-uIgG1K (antibody, V domains shown)
VH: QVQLVQSGAEVKKPGSSVKVSCKASGYSFTTYYIHWVRQAPGQGLEWMGWIFPGNDNIKYSEKFKGRVTITADKSTSTAYMELSSLRSEDTAVYYCAIDSVSIYYFDYWGQGTLVTVSS
VL: DIVMTQSPDSLAVSLGERATINCKSSQSLLNSRTRKNYLAWYQQKPGQPPKLLIYWASTRKSGVPDRFSGSGSGTDFTLTISSLQAEDVAVYYCTQSFILRTFGGGTKVEIK
notes: Humanized antibody; uIgG1K means human IgG1 constant region and kappa light chain; expressed in 293F cells; also called W3311-2.166.48-z1-uIgG1K

EC50 [9]: 0.043 nM
EC50 [11]: 0.253 nM
Kd [16]: 0.053 nM
B10: WBP3311_2.306.4-z1-uIgG1K (antibody, V domains shown)
VH: QVQLVQSGAEVKKPGSSVKVSCKASGFAFTDYYIHWVRQAPGQGLEWMGWISPGNVNTKYNENFKGRVTITADKSTSTAYMELSSLRSEDTAVYYCARDGYSLYYFDYWGQGTLVTVSS
VL: B9 VL with K61Q, F98H, I99T
notes: Humanized antibody; uIgG1K means human IgG1 constant region and kappa light chain; expressed in 293F cells; also called W3311-2.306.4-z1-uIgG1K
